Test results as given in PMC13185609.

Key:
[1] = molecular target: Env of the infectious molecular clone 246.F3-NL4.3+BN (HIV-1 (NL4.3) | HIV-1 (subtype AC, 246.F3))
[2] = molecular target: 246.F3 Env, wild type (pseudovirus 246.F3-SG3 WT) (HIV-1 (subtype AC, 246.F3))
[3] = molecular target: 246.F3 Env N276K (pseudovirus) (HIV-1 (subtype AC, 246.F3))
[4] = molecular target: 246.F3 Env N276D (pseudovirus made in Expi293F) (HIV-1 (subtype AC, 246.F3))

VRC01 (antibody) showed an IC50 of neutralisation of the 246.F3-NL4.3+BN virus stock, TZM-bl cells [1] of 0.35 µg/mL, an IC80 of neutralisation of the 246.F3-NL4.3+BN virus stock, TZM-bl cells [1] of 0.85 µg/mL and an IC50 of neutralisation of pseudovirus, TZM-bl cells [2] of 0.204 µg/mL. For the same substance, the IC50 of neutralisation of pseudovirus, TZM-bl cells (highest concentration tested 50 µg/mL) [3] was over 50 µg/mL and the neutralisation of pseudovirus made in Expi293F cells, TZM-bl cells; fold change in sensitivity against wild-type 246.F3 [4] was 5 fold.
